Measured values as given in IntAct's records for PubMed 24788516.

B1: KAT8 regulatory NSL complex subunit 1 (Homo sapiens), Q7Z3B3 (parent)
chain: MAAMAPALTDAAAEAHHIRFKLAPPSSTLSPGSAENNGNANILIAANGTKRKAIAAEDPSLDFRNNPTKEDLGKLQPLVASYLCSDVTSVPSKESLKLQGVFSKQTVLKSHPLLSQSYELRAELLGRQPVLEFSLENLRTMNTSGQTALPQAPVNGLAKKLTKSSTHSDHDNSTSLNGGKRALTSSALHGGEMGGSESGDLKGGMTNCTLPHRSLDVEHTTLYSNNSTANKSSVNSMEQPALQGSSRLSPGTDSSSNLGGVKLEGKKSPLSSILFSALDSDTRITALLRRQADIESRARRLQKRLQVVQAKQVERHIQHQLGGFLEKTLSKLPNLESLRPRSQLMLTRKAEAALRKAASETTTSEGLSNFLKSNSISEELERFTASGIANLRCSEQAFDSDVTDSSSGGESDIEEEELTRADPEQRHVPLRRRSEWKWAADRAAIVSRWNWLQAHVSDLEYRIRQQTDIYKQIRANKGLIVLGEVPPPEHTTDLFLPLSSEVKTDHGTDKLIESVSQPLENHGAPIIGHISESLSTKSCGALRPVNGVINTLQPVLADHIPGDSSDAEEQLHKKQRLNLVSSSSDGTCVAARTRPVLSCKKRRLVRPNSIVPLSKKVHRNSTIRPGCDVNPSCALCGSGSINTMPPEIHYEAPLLERLSQLDSCVHPVLAFPDDVPTSLHFQSMLKSQWQNKPFDKIKPPKKLSLKHRAPMPGSLPDSARKDRHKLVSSFLTTAKLSHHQTRPDRTHRQHLDDVGAVPMVERVTAPKAERLLNPPPPVHDPNHSKMRLRDHSSERSEVLKHHTDMSSSSYLAATHHPPHSPLVRQLSTSSDSPAPASSSSQVTASTSQQPVRRRRGESSFDINNIVIPMSVAATTRVEKLQYKEILTPSWREVDLQSLKGSPDEENEEIEDLSDAAFAALHAKCEEMERARWLWTTSVPPQRRGSRSYRSSDGRTTPQLGSANPSTPQPASPDVSSSHSLSEYSHGQSPRSPISPELHSAPLTPVARDTPRHLASEDTRCSTPELGLDEQSVQPWERRTFPLAHSPQAECEDQLDAQERAARCTRRTSGSKTGRETEAAPTSPPIVPLKSRHLVAAATAQRPTHR
B2: KAT8 regulatory NSL complex subunit 2 (Homo sapiens), Q9H9L4 (parent)
chain: MNRIRIHVLPTNRGRITPVPRSQEPLSCAFTHRPCSHPRLEGQEFCIKHILEDKNAPFKQCSYISTKNGKRCPNAAPKPEKKDGVSFCAEHVRRNALALHAQMKKTNPGPVGETLLCQLSSYAKTELGSQTPESSRSEASRILDEDSWSDGEQEPITVDQTWRGDPDSEADSIDSDQEDPLKHAGVYTAEEVALIMREKLIRLQSLYIDQFKRLQHLLKEKKRRYLHNRKVEHEALGSSLLTGPEGLLAKERENLKRLKCLRRYRQRYGVEALLHRQLKERRMLATDGAAQQAHTTRSSQRCLAFVDDVRCSNQSLPMTRHCLTHICQDTNQVLFKCCQGSEEVPCNKPVPVSLSEDPCCPLHFQLPPQMYKPEQVLSVPDDLEAGPMDLYLSAAELQPTESLPLEFSDDLDVVGDGMQCPPSPLLFDPSLTLEDHLVKEIAEDPVDILGQMQMAGDGCRSQGSRNSEKASAPLSQSGLATANGKPEPTSIS

Variants of: B1
Details: with wdr5_human WDR5, P61964
With R592A the “effect of a mutation on the interaction” value was “disrupting interaction”.

Variants of: B2
Details: with wdr5_human WDR5, P61964
In the case of MNRIRIHVLPTNRGRITPVPRSQEPLSCAFTHRPCSHPRLEGQEFCIKHILEDKNAPFKQCSYISTKNGKRCPNAAPKPEKKDGVSFCAEHVRRNALALHAQMKKTNPGPVGETLLCQLSSYAKTELGSQTPESSRSEASRILDEDSWSDGEQEPITVDQTWRGDPDSEADSIDSDQEDPLKHAGVYTAEEVALIMREKLIRLQSLYIDQFKRLQHLLKEKKRRYLHNRKVEHEALGSSLLTGPEGLLAKERENLKRLKCLRRYRQRYGVEALLHRQLKERRMLATDGAAQQAHTTRSSQRCLAFVDDVRCSNQSLPMTRHCLTHICQDTNQVLFKCCQGSEEVPCNKPVPVSLSEDPCCPLHFQLPPQMYKPEQVLSVPDDLEAGPMDLYLSAAELQPTESLPLEFSDDEDDVGDGMQCPPSPLLFDPSLTLEDHLVKEIAEDPVDILGQMQMAGDGCRSQGSRNSEKASAPLSQSGLATANGKPEPTSIS [L411E;V413D], the “effect of a mutation on the interaction” value is reported as “disrupting interaction”.

Variants of: B2
Details: with wdr5_human WDR5, P61964
Remark: another data set of the same source
With MNRIRIHVLPTNRGRITPVPRSQEPLSCAFTHRPCSHPRLEGQEFCIKHILEDKNAPFKQCSYISTKNGKRCPNAAPKPEKKDGVSFCAEHVRRNALALHAQMKKTNPGPVGETLLCQLSSYAKTELGSQTPESSRSEASRILDEDSWSDGEQEPITVDQTWRGDPDSEADSIDSDQEDPLKHAGVYTAEEVALIMREKLIRLQSLYIDQFKRLQHLLKEKKRRYLHNRKVEHEALGSSLLTGPEGLLAKERENLKRLKCLRRYRQRYGVEALLHRQLKERRMLATDGAAQQAHTTRSSQRCLAFVDDVRCSNQSLPMTRHCLTHICQDTNQVLFKCCQGSEEVPCNKPVPVSLSEDPCCPLHFQLPPQMYKPEQVLSVPDDLEAGPMDLYLSAAELQPTESLPLEFSDDLDDVGDGMQCPPSPLLFDPSLTLEDHLVKEIAEDPVDILGQMQMAGDGCRSQGSRNSEKASAPLSQSGLATANGKPEPTSIS [V413D] the “effect of a mutation on the interaction” value was “disrupting interaction”.
